The test system of data set [1] is insulin. Conditions: literature, cited from earlier work. The text has this: These agents routed via natural source or synthetic pathways are generally termed as amyloid inhibitors. The idea behind such anti-amyloid agent is to inhibit the creation of amyloidogenic aggregate and/to arrest the amyloid construction.
Data set [2] has as its target T1, insulin (Bos taurus, UniProt P01317).
T1 construct: Insulin consists of two polypeptide chains (Chain A –21 residues; Chain B –30 residues) held together by two disulphide bonds; purchased Sigma (St. Louis, MO)
The data set is classed as biochemical, bovine. Conditions: pH 2.6.

Another data set has as its system insulin fibrils. The format is biochemical, bovine. Conditions: pH 2.6.
Data set [3] addresses T1, insulin. The format is biochemical, bovine. To be noted: pH 2.6. The source holds these as a separate data set.
Data set [4] has as its target T1, insulin. The format is biochemical, bovine.
The target of data set [5] is T1, insulin. The data set is classed as biochemical, bovine. Conditions: pH 2.6. This is another data set of the same source.
Data set [6] addresses T1, insulin. Kind of data set: biochemical. The data set is classed as binding, bovine. To be noted: apparent Kd.
In the next data set the test system is human red blood cells. To be noted: red cells of human, 1 h, 250 µM.

This is an account of results in PMC3756998, “Use of a Small Peptide Fragment as an Inhibitor of Insulin Fibrillation Process: A Study by High and Low Resolution Spectroscopy” (PLoS ONE, 2013).

Values joined by “and” are separate entries in the source; they are usually repeats but may differ in a detail not shown here. Identical values can stand only once. “Also recorded” adds a separate entry of the source. Like-named read-outs stand apart in the source and are kept apart here. Ends that are not written are not given here.

As usually defined, the viability is the share of living cells, or the viability signal relative to a control. Lower therefore signals more harm to the cells.

T1 sequence (P01317 25-54 limits assumed): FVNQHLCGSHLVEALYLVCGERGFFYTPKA
T1 sequence (P01317 85-105 limits assumed): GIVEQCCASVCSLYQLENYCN

For the molecule `O=c1c(O)c(-c2ccc(O)c(O)c2)oc2cc(O)cc(O)c12` [quercetin], in the data set on insulin [1] (ref [45]–[46]), the “effect on insulin fibrillation (in words)” value was “interfered with the dissociation of the oligomeric insulin to monomer and also destabilized preformed insulin fibril”.

Regarding `OCC(F)(F)F` [trifluoroethanol], the “effect on insulin fibrillation (in words)” value with insulin [1] (ref [23]) was “on binding with insulin trimer prevented the appearance of soluble oligomers; also recorded: could delay the fibrillation of insulin by interfering with the oligomer to monomer dissociation step”.

Regarding “Insulin: 51-residue protein hormone; bovine insulin, two chains held together by two disulphide bonds”, in the data set with insulin [2], the “Apparent Rate Constant” value turned out to be 2.9 ± 0.13 h⁻¹; the “Lag Time” value was 120 min and 120 ± 5 min. The “fibril morphology by TEM” value with insulin fibrils was “branched insulin fibrils”. Further, in the data set with insulin [3], the “helix content of insulin (CD)” value came to 39%. Further, in the data set with insulin [4], the “cross beta structure formation / helix loss of insulin (FT-IR, in words)” value was “forms the cross beta structure indicative of fibrils beyond 2 h; also recorded: significant increases in the A1628/A1654 ratio was observed after 2 h of incubation” and the “β-sheet content of mature fibrils (FT-IR)” value is around 60%. In the data set with insulin [5], the hydrodynamic radius was 2.0 nm, the “size of insulin monomer formed” value is 1.3 nm and the “size of large oligomer” value stood at 24 nm.

With NIVNVSLVK [NK9, NIVNVSLVK], on insulin [6], the Kd was 2.2 µM and 1.2 µM. In addition, in the data set with human red blood cells, the hemolysis result is “less than 0.5%”. For the same molecule, the cytotoxicity entry in the data set with HT1080 cells is given as “less than 5%”.

In the data set with HT1080 cells, Triton X 100 [reference compound] displayed a viability of 20%.
